The target in assay [1] is SARS-CoV-2 protein used in the SPR assay of Example 2 (not named). Nature of the assay: SPR.
Assay [2] has as its target Biotinylated 2019-nCoV (COVID-19) S1 protein (16-685), His, Avitag (SARS-CoV-2), P0DTC2. Nature of the assay: SPR, Biacore T200, geomean.

Consider two molecules from patent publication US20250325672A1.

B1: BCY16911 (peptide)
peptide: CVNKHNPVCRFYC
modifications: not checked
B1 had a negative-log KD (pKD) in assay [1] of 8.

B2: BCY18707 (peptide)
peptide: CIPLDWTCMIAC
modifications: not checked
In the case of B2, in assay [2], the Kd is 2440 nM.
